A protein production outcome set (Wang et al. 2014)

Assay: label from the status in PepcDB records

| Sequence | protein production |
| --- | --- |
| MYKRRVDPELEDLTSRAREALALFISISLRDNTELNLVVPNGPSWLSHVDKKDLYLNDETLKKITDILVAKDVTGNYNIVNVAIAAAPQHSQKRFVIYIKTSIYVEIVVIGNMKSNLTLIADGQDSTIITFNLSSSNSKRTFNTATFASNGDGFIRVDMCFRNTTWPVKGPVVTLRVNGDMSIIYRCRVEEYQDALYPHKNRQCYREYFLMDTVDFICGNAAAVFQFCQIVHMDG | not failed |
| MQTQFQFINDCLIENQPLWRFEPFQSSIQPSLPWQETHPQLCQWLESLSPSQIETLKADPDLALDEISVFLPDLPSLLRHTQLESMALDGLALERGLDSGIPGRKLEQITAMGEAAIQSHQGEEWLEWCSGKGYLGRILTTQTNQPVTSFEYQQALCDSGQQAANEHHWKMTFIQGDAFDPQTKAVFKPTQHAVALHACGDLHVRLMEYGSEAGIAAMTISPCCYHLIQSETYQALSQSVRASELILSKHELRIPLQQTVTGGERVRRHRQQEMVFRLGFDLLTREILGVDEYQPVPSIRKSQLSDGFEALCLWVAKEKGIEINQAIDFAEFEKRAIKRFWHMERMSLVQLVFQRPLEIWLALDKVLYLEERGYRVRLAEFCPKSVTPRNILICAYKN | failed |
| MVGIYIGSTAAAAGKNLACMALGLVLGRDGRSVGYMKPYGQRPRMVDDRTGDIDAMLVQEVLGQNADPEVVTPVVEPANIRAMSLRGGNALERVGAAYTALARGRDVMLVGGTGSLFHTGRARGLDGLALVRRLDLRVVLVERYHPHPEGGGIDHDAILYAADVLGDRLAGVLLNDLPESYQRDAEEVLVPYLAEHGVRVLGLVPHDPLLHAIRASDLAVRLGGRLVCGGKGSQRLVEGFLIGTMQVENFMSHFRRHANTATIVGGDRTDLQLVALEGQCPCLVLTGNMPPDELIRQRSEQHGAPVIVVREDTYTVARKMEEILNSQKLRDLVTIRRGADIVAGALDRAALLAQTGIPKGENR | failed |
| MKGMKYHDYIWDLGGTLLDNYETSTAAFVETLALYGITQDHDSVYQALKVSTPFAIETFAPNLENFLEKYKENEARELEHPILFEGVSDLLEDISNQGGRHFLVSHRNDQVLEILEKTSIAAYFTEVVTSSSGFKRKPNPESMLYLREKYQISSGLVIGDRPIDIEAGQAAGLDTHLFTSIVNLRQVLDI | not failed |
| MASDINAKLRQKQYEAAVLEFAGDRKGYFVVASDDPQFASLLRQTLTKHLAIPGDAMSTVANPDHILRELKNVTMRRKTVLLFLERILEGRDTNLLVRQLKSAYPDLKIIVITGETERNRLVLLHEVGADNFITKPVSMNTLIEKMAFTIKPLGKLGQLIDQAREFVHQNLPEQGIKLCRQILELKPGSAAGYLVMGEAYQHLGKLDKARECYEEASRNAELYLEPLRRLADIHGEMGEPTEQLRYLERLDQLSPLNVERKVDMGAIHLELGNQEKADELFDTAVQQATREALSYIADISGRIAGIYNGRDPQRAEHFLRRALDAKGDMLDASDLDTFNRLGIALRRQGKWQEALTEYHKALRVAPEDENLFYNMGMACAEGRDFREARANMLKALTINPELPRRDPVMAYNIGLVFMRAGGREYAERCLNIALELDPGFTKAREALERLG | failed |
| MSTKKPAAAYSEASIKVLKGLEPVKQRPGMYTRTENPLHIIQEVIDNASDEALGGFGKQITVTLHPDQSVSVEDDGRGIPFGLHPEEKVPVVEIVFTRLHAGGKFDKAKGGAYTFSGGLHGVGVSVTNALATRLDVTVWRDGKIAQLGFADGDVVKPLATQGAGRGEKKSGTRVTVWPNPKYFDSPNLPLGELQRLLRSKAVLLPGVEVVLVNEKTGERQSWKYEDGLRGYLLDEMNGSELLIPLFEGERFADSRSGDDTFAEGEGASWVVAWSEEGSLVRESYVNLIPTPAGGTHESGLRDGLYQAVKSFVELHNLQPKGVKLLAEDVFARVSFVLSAKVLDPQFQGQIKERLNSRDAVKLVSSFTRPALELWLNQHVEHGKKLAELVIKQAQARTRAGQKIEKKKSSGVAVLPGKLTDCETEDIARNELFLVEGDSAGGSAKMGRDKEYQAILPLRGKVLNTWETERDRLFANNEVHDISVAIGVDPHGPDDSVDVSNLRYGKICILSDADVDGAHIQVLLLTLFFKHFPQLIERGHVFVARPPLFRVDAPARGKKPAQKLYALDEGELEAILDKLRKDGVRESQWTISRFKGLGEMSAEQLWDTTMNPDTRRLMPVALGELDFEATVARMTMLMGKGEAAARRNWLEEKGNEVEADI | failed |
| MQNPAGNPYNLDSFWFEQLMSHPSLNHAKMATRIQDETLEREVADLVISTLNLDVSPESVDPEAPLYREGLGLDSIDILEIALVVSKRYGFQLRADNEDNVRIFGSLRSLCQHIAANRVECLEHHHHHH | not failed |
| MEIIHLSEIDSTNDYAKELAKEGKRNFIVLADKQNNGKGRWGRVWYSDEGGLYFSMVLDSKLYNPKVINLLVPICIIEVLKNYVDKELGLKFPNDIMVKVNDNYKKLGGILTELTDDYMIIGIGINVNNQIRNEIREIAISLKEITGKELDKVEILSNFLKTFESYLEKLKNKEIDDYEILKKYKKYSITIGKQVKILLSNNEIITGKVYDIDFDGIVLGTEKGIERIPSGICIHVR | not failed |
| RNVWVVAELDEQGVSEASLQMLTPARRIADKLGESVVGVIAGPPGSSQLAVEMVERGADEVIVVEHERLSEYYPDVVGSVIVELSLKYKPSVILFAATARGREMAPYVANTLKTGITADCTDFDVDPKTRDVLLIRPPFSAIMLAYIRTPFRRPQIGTARPNVFPLPERQPGRQGRIVREEVEPPEPMARLVNRVRIPRSEVP | failed |
| MLCLHTSVHCYENPSVIFSLIYIIICKYMYYNILSATTIFILYSQIVGQNGDDIIKYYHSFLNYVIIFYMSRH | failed |
| MANPPSQEADHLVEAFRYTVAKLFLQQAQKDHLKADKEAIFVLSELLLGYIEILTADLEAFCRHGKRTTITADDVLLCCRRNENLVSRHMLINRAAAEISSFP | failed |
| MATPTQTPTKAPEEPDPFYYDYNTVQTVGMTLATILFLLGILIVISKKVKCRKADSRSESPTCKSCKSELPSSAPGGGGV | not failed |
| MPHLTKAVHDYRLAAMHRLMDRLRVDALVFGSPDFFQYATNFQLDVWPWERPVFVVVPRNGETFAVMNELSTNHMRFATEKGTVWLSDVTYYAEHPRVANRLALPSQLPEVVAALLAAKGLGMSRIAVDVQHPILTGAQRYLPEMTLRPAMAEMRSLRWVKHAEELQIMRDLAALTDWVQDRYRENIRPGRLVQELDHAMAALMVEEAARRFAGEDFEIMKCWTLTGAASASPHGDGAACGSRIAKGDTIVNLVLPRLNGLYVENERTWFCGQPSDEQARFYSVAARATDAAVAAAVVGRRVCDMDAAAQAVIESAGCGDYVFHRTGHAVGLMLHEYPEDMAFNTRPLLAGEVYSSEPGLYVYGLGGFRLDDTVVVGEVPEVIVKTPKTLSYATVSL | failed |
| MMSEAIIHGIILAFGLIIPLGVQNVFVFNQGASQPNIWRAAPVVLTASICDTLLILIAVQGVSLVLLTFSWLTNSLYIIGFFFLLYMGFVIWRSNPSNDVKQEKSMPLKKQILFAASVSLLNPHAILDTIGVIGTNSIQYIGSEKWAFTLATIIVSWIWFISLALAGKFLKRLDSTGKTILLLNKFSGLIIWGVALYMLKQVIYS | failed |
| MTTLQLFESVNAFVWGPPLLALLVGTGIYLTIRLGLLQVVRLPLALRYVFGRDDEHHEEGDVSSFAALCTALAATIGTGNIVGVATAVAAGGPGALFWMWVAAFFGMATKYAEGLLAVKYRVTDANGQMSGGPMYYLERGLGSRMLARAFALCGILVAFFGIGTFAQVNAIKDAASLSLGIPPLATAVVLTTTVALVTLGGLRSIARVAEKVVPFMAVFYIIASCAVLVMHLDRIPDAVMVILHSAFNPQAALGGAAGMTVLTAMRAGVARGVFSNESGLGSAPIAAAAARTKSCVRQGLISMTGTFFDTIVICTMTGLVLVVTGVWNDPQLAGAAMTNAAFAAGLESSLGQYAATLGLILFAFTTILGWNYYGERCTEYLFGVRGILPYRLVFIGLVAAGAFVHLELIWVLADIVNGLMAIPNLIGLLGLSGVIIAETRAFFEADAPSVDAPCGSDADNASGACPRA | failed |
| MIRALSMHLLDRLTIRLFHDERQKQFSGDHARSLGWSSTESQFLRFKTMTQAINFEQKTVLDLGCGYGDFKTFLDMSCCIKSYTGVDQQSSFIKQAKSLFKHHTNCEFIKADFSATTLPKADIVVASGSLNYRARNKTYHAKVIKEMYERAEEAVIFNLLNSEHFTSSSLLEAHDPQQVLKYCLSFCPDSELITDYANEDFTIVMRHSNSSKLEHHHHHH | not failed |
| MDKESTKWIRFLGGKNLLYTLTILCLIAVTIFLFNTVSFIFKPIFVIFSAVLGPVLFGIILFYLLNPMVKRLEKKIPRVWAIAILYVLIIALLVLAGLQLFPIIQDQTEELIKQFPSFWKSTLQTVQEFMAKTPFAKDLESANESINQLWGKLANSFKDFAGDYLQTGAQGLGSVFSAVSSTFLTLFTGPIIAFFLLKDKEKFYRFVKGIIPPAFRPDFDEYSQIANIQIGDYLKGQVIASLVLGIMYWPAFLLIGLQFGSILALAAGILCIIPYIGPFIAFIPGLIIAFQDSTFMVVKFVIVWFAIQLIHGDFVIPRVMGDKLKVHPITILLVLLVMGELFGLMGVIFGIPMYCLVKVTVIYLFRKFKQRYNRFYGDNGEYEHTNFTKDQYLK | failed |
| MLSLKKSLNPPSSFGWSDPDPCKWTHIVCTGTKRVTRIQIGHSGLQGTLSPDLRNLSELERLELQWNNISGPVPSLSGLASLQVLMLSNNNFDSIPSDVFQGLTSLQSVEIDNNPFKSWEIPESLRNASALQNFSANSANVSGSLPGFLGPDEFPGLSILHLAFNNLEGELPMSLAGSQVQSLWLNGQKLTGDITVLQNMTGLKEVWLHSNKFSGPLPDFSGLKELESLSLRDNSFTGPVPASLLSLESLKVVNLTNNHLQGPVPVFKSSVSVDLDKDSNSFCLSSPGECDPRVKSLLLIASSFDYPPRLAESWKGNDPCTNWIGIACSNGNITVISLEKMELTGTISPEFGAIKSLQRIILGINNLTGMIPQELTTLPNLKTLDVSSNKLFGKVPGFRSNVVVNTNGNPDIGKDKSSLSSPGSSSPSGGSGSGINGDKDRRGMKSSTFIGIIVGSVLGGLLSIFLIGLLVFCWYKKRQKRFSGSESSNAVVVHPRHSGSDNESVKITVAGSSVSVGGISDTYTLPGTSEVGDNIQMVEAGNMLISIQVLRSVTNNFSSDNILGSGGFGVVYKGELHDGTKIAVKRMENGVIAGKGFAEFKSEIAVLTKVRHRHLVTLLGYCLDGNEKLLVYEYMPQGTLSRHLFEWSEEGLKPLLWKQRLTLALDVARGVEYLHGLAHQSFIHRDLKPSNILLGDDMRAKVADFGLVRLAPEGKGSIETRIAGTFGYLAPEYAVTGRVTTKVDVYSFGVILMELITGRKSLDESQPEESIHLVSWFKRMYINKEASFKKAIDTTIDLDEETLASVHTVAELAGHCCAREPYQRPDMGHAVNILSSLVELWKPSDQNPEDIYGIDLDMSLPQALKKWQAYEGRSDLESSTSSLLPSLDNTQMSIPTRPYGFAESFTSVDGR | not failed |
| MRRAGYLHLYGLNLVFDRVGKGPPVLLVAEEASRWPEALPEGYAFYLLDLPGYGRTEGPRMAPEELAHFVAGFAVMMNLGAPWVLLRGLGLALGPHLEALGLRALPAEGVEVAEVLSSKLSYGNIDLGGNL | not failed |
